PMC2927863

T1: GST-NHR-6 (DBD+LBD) (Caenorhabditis elegans, UniProt P41829 260-619)
T1 sequence: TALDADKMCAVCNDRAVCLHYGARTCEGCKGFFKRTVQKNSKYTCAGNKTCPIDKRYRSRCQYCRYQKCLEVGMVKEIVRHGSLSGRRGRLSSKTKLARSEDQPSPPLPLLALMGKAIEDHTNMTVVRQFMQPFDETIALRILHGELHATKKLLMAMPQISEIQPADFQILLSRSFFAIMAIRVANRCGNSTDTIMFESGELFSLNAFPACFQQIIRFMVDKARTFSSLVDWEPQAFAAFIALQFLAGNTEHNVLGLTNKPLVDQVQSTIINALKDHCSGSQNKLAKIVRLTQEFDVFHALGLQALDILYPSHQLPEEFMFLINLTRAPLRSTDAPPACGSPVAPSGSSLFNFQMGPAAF

T2: GST-NHR-6 (C288S) (Caenorhabditis elegans, UniProt P41829 260-619, C288S)
T2 sequence: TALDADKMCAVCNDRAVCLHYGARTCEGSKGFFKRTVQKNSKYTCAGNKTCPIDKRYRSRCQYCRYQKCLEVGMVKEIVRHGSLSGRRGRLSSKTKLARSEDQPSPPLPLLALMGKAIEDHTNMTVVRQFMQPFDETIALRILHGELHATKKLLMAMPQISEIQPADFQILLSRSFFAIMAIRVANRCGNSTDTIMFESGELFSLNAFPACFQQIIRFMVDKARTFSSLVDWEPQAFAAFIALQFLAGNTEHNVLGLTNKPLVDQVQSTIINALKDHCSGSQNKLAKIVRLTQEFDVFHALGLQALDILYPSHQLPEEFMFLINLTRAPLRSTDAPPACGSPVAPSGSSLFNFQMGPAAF

B1: mutant NBRE 26-mer (dsDNA)
DNA 1: GAGTTTTACCAGGTCATGCTCAATTT
DNA 2: AAATTGAGCATGACCTGGTAAAACTC
B2: NBRE 26-mer (dsDNA)
DNA 1: GAGTTTTAAAAGGTCATGCTCAATTT
DNA 2: AAATTGAGCATGACCTTTTAAAACTC

Key:
GST-NHR-6 (DBD+LBD) [1] = target: T1, GST-NHR-6 (DBD+LBD); assay: competition
GST-NHR-6 (C288S) = target: T2, GST-NHR-6 (C288S); assay: EMSA
GST-NHR-6 (DBD+LBD) [2] = target: T1, GST-NHR-6 (DBD+LBD); assay: EMSA

| Binder | binding result (GST-NHR-6 (DBD+LBD) [1]) | binding result (GST-NHR-6 (C288S)) | binding result (GST-NHR-6 (DBD+LBD) [2]) |
| --- | --- | --- | --- |
| B1 | no binding |  |  |
| B2 |  | no binding | binds |
